± gives the uncertainty stated by the source.
Assay: protein stability index of a GFP-peptide fusion (yeast GPS) (PSI 1-4); higher = more stable; sorted into four equal gates, so the index is relative within each strain
How it was run: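 Each library plasmid carries Cherry plus GFP with a tiled 17-residue yeast protein peptide fused downstream, and the pooled library was carried in yeast. Mid-log cultures in leucine-free medium were sorted into four equal gates by GFP/Cherry ratio. Reads from Illumina sequencing of PCR-amplified plasmids from each gate were assigned to strains by barcodes. Per peptide, the protein stability index was computed as the summed products of gate read frequency and gate number.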

Sequence	protein stability index (doa10∆)	protein stability index (pdr5∆)	protein stability index (san1∆)	protein stability index (ubr1∆)
NLENMSIQDTSTVAKNV [YCG1]	3.01 ± 0.052	3.12 ± 0.051	3.1 ± 0.04	3.21 ± 0.041
KSIINSQRPGARILARS [ITC1]	–	2.18 ± 0.16	2.45 ± 0.22	2.63 ± 0.11
AAKKAMYTLSAQDEVFS [ASC1]	2.78 ± 0.071	2.6 ± 0.063	2.23 ± 0.091	2.83 ± 0.06
NSRNAIRKLVKNGTIVK [RPL19A]	2.84 ± 0.07	2.9 ± 0.063	2.89 ± 0.057	2.79 ± 0.066
LFGSPPFILEYDLMAPN [YMR129W/POM152]	2.74 ± 0.075	2.9 ± 0.094	–	2.94 ± 0.074
GEILLPDIADIPRTFRT [SNF5]	2.82 ± 0.14	3.18 ± 0.12	3.19 ± 0.12	3.05 ± 0.1
DKPLLKAGRAFHKYRLK [RPL2A]	2.96 ± 0.085	3.07 ± 0.058	2.16 ± 0.059	2.04 ± 0.061
FQHILRLLNTNVDGNIK [RPS18A]	2.87 ± 0.05	2.95 ± 0.064	2.83 ± 0.045	2.59 ± 0.043
LVSVVEAFIASGITDPY [FAS2]	1.42 ± 0.041	1.39 ± 0.042	1.67 ± 0.072	1.85 ± 0.035
RAKSSSHLFNEYSYVDS [RPN4]	2.62 ± 0.16	3.23 ± 0.24	3.25 ± 0.19	2.63 ± 0.12
DTNSSKPKNTKENLSKS [SIR4]	1.33 ± 0.21	1.56 ± 0.12	2.05 ± 0.15	–
KSMKYVKKILPLYARYI [ECM29]	1.38 ± 0.093	1.19 ± 0.069	–	1.18 ± 0.1
SQISPEKQTPNKKDKKK [RPN1]	2.95 ± 0.063	2.9 ± 0.1	3.09 ± 0.06	3.12 ± 0.069
ELDRAAMNDKDLTMGQV [RPO21]	3.29 ± 0.17	3.31 ± 0.14	2.8 ± 0.13	3.12 ± 0.097
MGKSHGYRSRTRYMFQR [RPL21A]	3.15 ± 0.094	3.25 ± 0.093	3.3 ± 0.056	3.32 ± 0.055
GIKLQMQNSKVESVCQK [SMC4]	2.55 ± 0.074	2.45 ± 0.077	2.59 ± 0.08	2.5 ± 0.084
NAELLDYLFHLLISLNI [YLR018C/POM34]	1.79 ± 0.044	1.37 ± 0.031	1.21 ± 0.068	1.28 ± 0.027
IALNLASKKFGKICLIL [SSN2]	2.41 ± 0.11	2.83 ± 0.062	2.9 ± 0.071	3.12 ± 0.061
AMICEAKGLIENIFEGE [YJR042W/NUP85]	2.94 ± 0.13	2.93 ± 0.086	2.5 ± 0.1	2.81 ± 0.064
GRTGRAANEGTAVSFVS [PRP28]	2.7 ± 0.26	–	2.81 ± 0.27	2.7 ± 0.26
KSAENIIKMTIPYAAKL [RET1]	2.27 ± 0.1	2.48 ± 0.11	2.89 ± 0.15	2.32 ± 0.09
GTFKSTLDREYITLKAT [QCR2]	1.39 ± 0.065	1.44 ± 0.044	1.51 ± 0.099	1.49 ± 0.047
QIRSADEPMTTFYKCVN [RPC11]	2.26 ± 0.2	2.54 ± 0.078	2.2 ± 0.14	2.77 ± 0.085
AINIMNRSNDALIKFME [FAS2]	3.19 ± 0.15	3.45 ± 0.15	3.26 ± 0.093	3.38 ± 0.15
NMGMNNMNNGGKELDSL [PGD1]	3.54 ± 0.28	3.64 ± 0.24	3.24 ± 0.11	3.24 ± 0.082
DESDSENDIEIKGPEFK [YLR335W/NUP2]	2.88 ± 0.11	2.92 ± 0.21	3.03 ± 0.13	2.96 ± 0.095

Sequence	protein stability index (doa10∆)	protein stability index (pdr5∆)	protein stability index (san1∆)	protein stability index (ubr1∆)
LKEPVEDIIKRTSPIDN [NUT2]	2.97 ± 0.083	3.09 ± 0.1	2.64 ± 0.1	3.2 ± 0.061
ENLVVADLESFANNHFL [COR1]	1.7 ± 0.12	2.24 ± 0.18	1.97 ± 0.14	1.89 ± 0.12
KLSIAEERDRRRAQQGL [RPS4A]	2.11 ± 0.06	2.19 ± 0.069	2.49 ± 0.095	1.6 ± 0.063
LLAEYDNIYRNLQKIDK [MED4]	2.4 ± 0.048	2.69 ± 0.042	2.61 ± 0.05	2.32 ± 0.028
LLRYGGAFTIALAYAGT [RPN2]	2.02 ± 0.084	2.27 ± 0.11	1.91 ± 0.12	2.24 ± 0.051
RKANREEKLKANKEKKK [RPL24A]	2.88 ± 0.074	1.98 ± 0.066	2.15 ± 0.087	2.31 ± 0.053
PALIRPGRIDRKILFEN [RPT2]	–	2.21 ± 0.16	2.12 ± 0.2	2.58 ± 0.17
RLSNEMHALKNRSEQNG [RGR1]	3.32 ± 0.12	3.25 ± 0.17	3.09 ± 0.16	2.9 ± 0.12
RVHRRNNRWAENNYKKR [RPS23A]	3.26 ± 0.29	3.55 ± 0.21	–	3.54 ± 0.1
ILEDFRVIKDFKKLNSK [YMR153W/NUP53]	3.15 ± 0.11	3.32 ± 0.12	3.58 ± 0.055	3.29 ± 0.063
RATNCRKRKCGHTNQLR [RPL40A]	3.25 ± 0.092	3.13 ± 0.058	3.12 ± 0.048	3.17 ± 0.051
KIINTHSDMASKMYNTD [PRP8]	2.72 ± 0.049	2.76 ± 0.052	2.77 ± 0.05	2.28 ± 0.029
TLIIDQVRKDLGNVIVP [NUT1]	3.07 ± 0.29	–	3.12 ± 0.21	2.89 ± 0.14
DIPFFPSSEKPNIRTMS [SSN2]	–	–	3.1 ± 0.22	–
MYILGMCVSKGNASLKY [YCG1]	1.79 ± 0.083	2.42 ± 0.12	1.58 ± 0.11	2.17 ± 0.091
TAVGKAAVVKTSSRQTV [RPT5]	3.39 ± 0.065	3.23 ± 0.07	3.28 ± 0.074	3.15 ± 0.052
KTMIKTIEKDKMKIQET [SMC2]	2.85 ± 0.17	1.86 ± 0.14	1.64 ± 0.12	2.04 ± 0.062
ESGEFDFDLFKEVLPDL [YJL039C/NUP192]	3.43 ± 0.13	3.26 ± 0.092	3.17 ± 0.063	3.23 ± 0.079
ILSSLYLLSIWVKKFKW [CYT1]	2.22 ± 0.091	1.5 ± 0.069	1.77 ± 0.089	1.3 ± 0.055
TGMEPGKTSFFQALGVP [RPP0]	2.89 ± 0.13	3.2 ± 0.098	3.23 ± 0.13	3.17 ± 0.073
HKYVLTLQLYMVHREFL [RGR1]	1.38 ± 0.039	1.47 ± 0.037	1.86 ± 0.055	2.1 ± 0.034
ENDTTLVKTKELIKNYI [FAS1]	3.04 ± 0.13	2.85 ± 0.15	2.83 ± 0.13	2.68 ± 0.058
TGKVSEFISIYSNSHQM [RET1]	2.83 ± 0.092	2.44 ± 0.12	3.03 ± 0.11	2.72 ± 0.073
PLLRKVVDRESDIPKTT [PRE4]	2.54 ± 0.11	2.46 ± 0.091	1.87 ± 0.13	2.79 ± 0.067
TTQGGLTSVTRHGFNRS [RPO21]	3.14 ± 0.088	3.04 ± 0.08	3.15 ± 0.077	3.26 ± 0.071
LKIYKVGDIVDIKANGS [RPL21B]	2.18 ± 0.058	1.88 ± 0.05	1.83 ± 0.062	2.08 ± 0.03

Sequence	protein stability index (doa10∆)	protein stability index (pdr5∆)	protein stability index (san1∆)	protein stability index (ubr1∆)
LSEDELRELDVELIESK [SMC4]	3.33 ± 0.18	3.72 ± 0.24	3.4 ± 0.11	3.23 ± 0.073
TSTGTTIVGVKFNNGVV [PUP1]	2.55 ± 0.12	3.14 ± 0.11	3.01 ± 0.14	2.71 ± 0.095
FDISMADLSSSEEEEDE [SSN2]	3.14 ± 0.079	3.13 ± 0.077	3.11 ± 0.1	2.45 ± 0.063
ILDIVINNPVNLTIHFG [FAS1]	2.06 ± 0.088	2.4 ± 0.078	2.5 ± 0.097	3.02 ± 0.075
HPPDFKRMLLSLSEFAR [SNF2]	1.32 ± 0.038	1.33 ± 0.036	1.26 ± 0.064	1.27 ± 0.023
PSPISHVAEIRSALEKG [RPB2]	1.68 ± 0.076	1.93 ± 0.066	1.68 ± 0.09	1.76 ± 0.053
ELDPECQLQNSDNSEEE [RRP43]	3.14 ± 0.075	2.95 ± 0.066	2.94 ± 0.054	3 ± 0.063
EPVKEYTFKTSMRVKPS [YMR129W/POM152]	3.31 ± 0.15	3.08 ± 0.13	3.04 ± 0.13	3.48 ± 0.16
VDDLRPEFAGYSKAAEP [ASC1]	3.18 ± 0.23	–	–	3.67 ± 0.16
GVTSLGIKATNGVVIAT [PRE8]	2.82 ± 0.14	2.62 ± 0.16	3.05 ± 0.1	3.28 ± 0.29
LKHVLQLIFRQQTGLVD [SNU114]	1.23 ± 0.075	1.58 ± 0.076	1.68 ± 0.12	1.2 ± 0.049
QWFEAHYGQTLGKKKNV [RPS8A]	2.556 ± 0.025	2.876 ± 0.025	2.44 ± 0.027	2.647 ± 0.022
MTQRAIQSAESIKSQKE [SWI3]	2.27 ± 0.12	1.74 ± 0.082	2.5 ± 0.14	1.7 ± 0.13
NIDTITDAMTESQPKQT [MCD1]	2.71 ± 0.14	3.02 ± 0.11	3 ± 0.076	3.32 ± 0.087
EFKSIEIEMKNKLEKLN [SMC4]	1.68 ± 0.058	1.51 ± 0.075	1.42 ± 0.19	1.37 ± 0.046
NENETRDKVCKQINEAR [PGD1]	3.14 ± 0.14	3.58 ± 0.19	3.28 ± 0.079	3.09 ± 0.1
KSNRSYSIALSNVAAIF [GAL11]	1.76 ± 0.08	1.67 ± 0.097	1.4 ± 0.27	1.43 ± 0.064
MPGMPNMPGMPKVTPQM [SRP54]	3.06 ± 0.17	3.2 ± 0.21	2.65 ± 0.18	3.34 ± 0.1
KSLVQYIELLPNADDIR [DIS3]	2.7 ± 0.15	2.75 ± 0.077	2.47 ± 0.069	2.62 ± 0.064
PNVDLVTALEVLSLGRP [RGR1]	1.95 ± 0.11	2.1 ± 0.063	2.47 ± 0.1	2.21 ± 0.058
ADEEEEIVDTYQEDIFV [ISW2]	2.8 ± 0.11	2.67 ± 0.12	3.43 ± 0.12	2.48 ± 0.088
DEESLVKYMPEQKITEI [RPO21]	3.23 ± 0.12	2.94 ± 0.098	2.99 ± 0.1	3.12 ± 0.056
KLLDDNPTEFDWPTYVD [SRB8]	3.11 ± 0.072	3.29 ± 0.061	3.01 ± 0.042	2.99 ± 0.058
ILTSKVNAIKNEVKEWA [DSN1]	2.64 ± 0.09	2.66 ± 0.094	3.07 ± 0.072	2.82 ± 0.08
QLDAYGEKKVGSNGELF [SWP82]	3.28 ± 0.13	3.29 ± 0.089	3.62 ± 0.071	3.32 ± 0.12
KKKKKGSNQKPKYEPPV [RPT2]	2.94 ± 0.11	2.96 ± 0.12	2.38 ± 0.22	3.12 ± 0.076
